The results in this text go back to publication PMC3898768, “The TBC/RabGAP Armus Coordinates Rac1 and Rab7 Functions during Autophagy” (Developmental Cell, 2013).

Experiment [1] concerns the target T1, cleaved active Rac1 (Rac^Q61L) (UniProt P63000 1-192, Q61L). The experiment can be described thus: pull-down; purified proteins: GST-Armus 1-550 incubated with cleaved Rac Q61L with or without increasing amounts of MBP-LC3 (molar ratios shown in the figure); probed for Rac1 or LC3. Particulars: both partners purified.
In experiment [2] the target is T1, cleaved active Rac1 (Rac^Q61L). The experiment can be described thus: pull-down; purified proteins: GST fusion protein (GST-LC3, or GST-Armus 1-550 wild-type or mutants) incubated with cleaved Rac Q61L; probed for Rac1. The following applies: both partners purified.

B1: GST-Armus 1-550 wild-type (domain or fragment)
chain: MEGAGENAPESSSSAPGSEESARDPQVPPPEEESGDCARSLEAVPKKLCGYLSKFGGKGPIRGWKSRWFFYDERKCQLYYSRTAQDANPLDSIDLSSAVFDCKADAEEGIFEIKTPSRVITLKAATKQAMLYWLQQLQMKRWEFHNSPPAPPATPDAALAGNGPVLHLELGQEEAELEEFLCPVKTPPGLVGVAAALQPFPALQNISLKHLGTEIQNTMHNIRGNKQAQGTGHEPPGEDSPQSGEPQREEQPLASDASTPGREPEDSPKPAPKPSLTISFAQKAKRQNNTFPFFSEGITRNRTAQEKVAALEQQVLMLTKELKSQKELVKILHKALEAAQQEKRASSAYLAAAEDKDRLELVRHKVRQIAELGRRVEALEQERESLAHTASLREQQVQELQQHVQLLMDKNHAKQQVICKLSEKVTQDFTHPPDQSPLRPDAANRDFLSQQGKIEHLKDDMEAYRTQNCFLNSEIHQVTKIWRKVAEKEKALLTKCAYLQARNCQVESKYLAGLRRLQEALGDEASECSELLRQLVQEALQWEAGEASSD
notes: Armus (TBC1D2A, isoform 1; UniProt Q9BYX2-1), residues 1-550; also called GST-Armus_(1–550) wild-type (WT); source: 'purified proteins'
As to B1, in experiment [1], the binding result is listed as “binds”.

B2: GST-Armus 1-550 W142A,Y510A (domain or fragment)
chain: MEGAGENAPESSSSAPGSEESARDPQVPPPEEESGDCARSLEAVPKKLCGYLSKFGGKGPIRGWKSRWFFYDERKCQLYYSRTAQDANPLDSIDLSSAVFDCKADAEEGIFEIKTPSRVITLKAATKQAMLYWLQQLQMKRAEFHNSPPAPPATPDAALAGNGPVLHLELGQEEAELEEFLCPVKTPPGLVGVAAALQPFPALQNISLKHLGTEIQNTMHNIRGNKQAQGTGHEPPGEDSPQSGEPQREEQPLASDASTPGREPEDSPKPAPKPSLTISFAQKAKRQNNTFPFFSEGITRNRTAQEKVAALEQQVLMLTKELKSQKELVKILHKALEAAQQEKRASSAYLAAAEDKDRLELVRHKVRQIAELGRRVEALEQERESLAHTASLREQQVQELQQHVQLLMDKNHAKQQVICKLSEKVTQDFTHPPDQSPLRPDAANRDFLSQQGKIEHLKDDMEAYRTQNCFLNSEIHQVTKIWRKVAEKEKALLTKCAYLQARNCQVESKALAGLRRLQEALGDEASECSELLRQLVQEALQWEAGEASSD
notes: Armus (TBC1D2A, isoform 1; UniProt Q9BYX2-1), residues 1-550, double point mutant; also called Armus^W142A,Y510A; source: 'purified proteins'
For the molecule B2, the binding result in experiment [2] is “binds”.
